Assay results: US20060083734A1, “Composition and method for repairing nerve damage and enhancing functional recovery of nerve” (priority 2004, published 2006)

Key:
Assay type in all cases: in vivo, rat
MCA occluded rats [1] = experiment: Accelerating rotarod test after FCI injury; settings: topical GDNF 1 μg
Description: (§1) Animals: The example conforms to the Guide for the Care and Use of Laboratory Animals, published by the US National Institutes of Health (NIH publication NO. 85-23, revised 1996). Male Long-Evans rats (National Lab. Animal Breeding and Research Center) weighing 300-350 g were used in this study. These animals were housed in a room with controlled temperature (24±1° C.) and humidity (55±5%) under a 12:12 h light-dark cycle. They were allowed free access to food and water.
(§2) Surgical procedure: The technique was a modification of the method of Huang et al (Huang S S, Tsai S K, Chih C L, Chiang L Y, Hsieh H M, Teng C M, Tsai M C. Neuroprotective effect of hexasulfobutylated C60 on rats subjected to focal cerebral ischemia. Free Radic Biol Med. 2001;30:643-649). […]
The accelerating rotarod was used to assess motor deficit following ischemic injury in rats (Hamm R J, Pike B R, O'Dell D M, Lyeth B G, Jenkins L W. The rotarod test: an evaluation of its effectiveness in assessing motor deficits following traumatic brain injury. J Neurotrauma. 1994; 11:187-196). The rats were placed on rungs of the accelerating rotarod and the time the animals remained on the rotarod was measured. […] The time in seconds at which each animal fell off the rungs was recorded. […]
(§3) Statistics. Data are expressed as mean±standard error of mean (S.E.M.). […]

MCA occluded rats [2] = experiment: Grasping power test after FCI injury; settings: topical GDNF 1 μg
Description: as §1, §2
The grasping power test was a modification of the method of Bertelli et al (Bertelli J A, Mira J C. The grasping test: a simple behavioral method for objective quantitative assessment of peripheral nerve regeneration in the rat. J Neurosci Methods. 1995;59:151-155). […] Rats were allowed to grasp the bar while being lifted by the tail with increasing firmness until they loosened their grip and the grasping power was scored.
as §3

MCA occluded rats [3] = experiment: Infarct volume analysis by TTC staining after MCA occlusion and reperfusion; settings: Long-Evans rats, 1 hr MCA occlusion, end of 4th week after FCI injury, topical GDNF 1 μg, mean±SEM, n=6
Description: as §1
Surgical procedure: The technique was a modification of the method of Huang et al (Huang S S, Tsai S K, Chih C L, Chiang L Y, Hsieh H M, Teng C M, Tsai M C. Neuroprotective effect of hexasulfobutylated C60 on rats subjected to focal cerebral ischemia. Free Radic Biol Med. 2001;30:643-649). In brief, each male Long-Evans rat was anesthetized by inhalation of a nitrous oxide/oxygen/halothane (69%:30%:1%) mixture during surgical preparation. Body temperature was maintained during surgery at 37±0.5° C. with a heating pad servo-controlled by a rectal probe. […] Measurements were performed before, during and right after unilateral MCA occlusion.
Focal ischemic infarcts were produced in the right lateral cerebral cortex in the territory of the MCA. Both common carotid arteries were exposed by midline anterior cervical incision. […]

[4] = end of 1st week after FCI injury
[5] = end of 4th week after FCI injury

B1: Glial cell line-derived neurotrophic factor (protein, UniProt P39905 78-211, looked up)
Glial cell line-derived …: SPDKQMAVLPRRERNRQAAAANPENSRGKGRRGQRGKNRGCVLTAIHLNVTDLGLGYETKEELIFRYCSGSCDAAETTYDKILKNLSRNRRLVSDKVGQACCRPIAFDDDLSFLDDNLVYHILRKHSAKRCGCI
notes: GDNF (1 μg) dissolved in HBSS solution, topically applied
mean latency to stay on the rotarod, of baseline (MCA occluded rats [1]; [4]): 50.3% | mean latency to stay on the rotarod, of baseline (MCA occluded rats [1]; [5]): 67.3% | mean value of grasping power, of baseline (MCA occluded rats [2]; [4]): 71.7% | mean value of grasping power, of baseline (MCA occluded rats [2]; [5]): 97.6% | infarct volume (MCA occluded rats [3]): 108.0±12.1 mm^3
